Measurements as given in patent US20210253718A1, “FRIZZLED5 PROTEIN-BINDING AGENTS” (Modmab Therapeutics Corporation, priority 2016, published 2021).

What was measured:
[1] = target: T1, FZD10 CRD (Homo sapiens, UniProt Q9ULW2); test: Flow cytometry of anti-FZD5 Fab binding to CHO cells overexpressing Frizzled CRD
T1 construct: 30-156; GPI anchor signal (C); expressed in transfected cells; host or cells: CHO cells, lentiviral pLenti-puro
T1 sequence (Q9ULW2 30-156): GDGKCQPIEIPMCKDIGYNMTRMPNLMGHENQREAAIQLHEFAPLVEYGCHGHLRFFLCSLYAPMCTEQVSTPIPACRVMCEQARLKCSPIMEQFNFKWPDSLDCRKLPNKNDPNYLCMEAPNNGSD
Procedure: (§1) Plasmids: pLCKO lentiviral vector used for knockout (TKO) library construction and expression of individual gRNAs was constructed as described previously (Hart et al., 2015). Briefly, single guide RNA (sgRNA) scaffold was amplified from px330 (Addgene 42230) and cloned into pLKO.TRC005 lentiviral vector (Broad Institute, Cambridge, Mass.) using AgeI/EcoRI restriction sites. BfuAI sites were added at the 5′ end of the sgRNA scaffold for cloning the TKO library or individual gRNA target sequences. Lenti Cas9-2A-BsdR vector used to generate Cas9 stable expression cell lines was constructed as described previously (Hart et al., 2015). Briefly, lentiCRISPR pXPR_001 (Addgene 49535) was modified through removal of the sgRNA scaffold region through NdeI/EcoRI digest and blunt ends generation using Large Klenow Fragment (NEB). 2A-puro was replaced with 2A-BsdR by PCR using the NheI/MluI sites. Each of the 10 human Frizzled cysteine rich domains (CRDs) were cloned into the lentiviral expression plasmid pLenti-puro in the following cassette: FZD_CRD-MYC-GPI.
(§2) Flow cytometry: Primary staining of cells was performed by treatment with 200 nM Frizzled profiler Fab. Alexa Fluor 488 AffiniPure F(ab′)2 was used as the secondary antibody (Jackson ImmunoResearch #109-546-097). c-Myc (9E10) IgG1 (primary antibody, Santa Cruz, lot #D0306) and Alexa Fluor 488 IgG (secondary antibody, Life technologies, lot #1458649) were used as controls. Dead cells were excluded by staining with Fixable Viability Dye eFluor 660 (eBioscience, catalogue number 65-0864). All reagents were used as per manufacturer's instructions. Flow cytometry was performed on a BD FACSCanto II flow cytometer (BD Biosciences), and data were analyzed with FlowJo software (FlowJo, LLC).
(§3) To confirm that the FZD5-WNT7B circuit is not driven simply by expression and rule out the possibility of a disconnect between RNA and protein levels for the Wnt receptors in HPAF-II cells, a panel of recombinant Fabs were generated, alternatively referred to herein as ‘Frizzled profiler’, that can detect and discriminate all but one of the ten Frizzled receptors. […] To characterize the binding specificity of these Fabs on cells, a panel of 10 CHO cell lines was generated, each expressing the CRD domain of a different myc-tagged Frizzled family member anchored at the plasma membrane through a GPI anchor (CHO-myc-FZDGPI). Despite the high sequence identity between Frizzled family members (FIG. 7A, FIG. 7B), selective Fabs were identified for FZD4, FZD5, FZD6 and FZD10 as assessed by immunofluorescence and flow cytometry (FIG. 7D and FIG. 8). […] The FZD8 CRD is most homologous to that of FZD5 (FIG. 7B). These Fabs can be used to discriminate expression of FZD1, FZD2, FZD4, FZD5, FZD6, FZD7, FZD8, FZD9 and FZD10 (FIG. 7D and FIG. 8). The ‘Frizzled profiler’ therefore consists of 10 different Fabs that can be used to discriminate expression of 9 different Frizzled family members. The Frizzled profiler was then used to confirm that HPAF-II cells express FZD1, FZD5, FZD6 and possibly FZD8 (FIG. 7E).
(§4) The binding of anti-FZD5 Fabs to cell surface-expressed Frizzled protein was further determined for each member of the Frizzled family via flow cytometry and immunofluorescence analysis of a panel of 10 CHO cell lines, each ectopically over-expressing the extracellular cysteine-rich domain (CRD) of a different Frizzled protein family member.

[2] = target: T2, FZD5 CRD (Homo sapiens, UniProt Q13467); test: as above
T2 construct: K29-T156; GPI anchor signal (C); expressed in transfected cells; host or cells: CHO cells, lentiviral pLenti-puro
T2 sequence (Q13467 29-156): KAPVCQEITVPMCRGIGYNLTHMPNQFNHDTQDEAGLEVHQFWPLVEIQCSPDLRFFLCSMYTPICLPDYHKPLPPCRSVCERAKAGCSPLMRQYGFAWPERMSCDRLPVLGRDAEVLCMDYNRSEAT
Procedure: as §1, §2, §3, §4

[3] = target: T3, FZD7 CRD (Homo sapiens, UniProt O75084); test: as above
T3 construct: D45-S169; GPI anchor signal (C); expressed in transfected cells; host or cells: CHO cells, lentiviral pLenti-puro
Procedure: as §1, §2, §3, §4

[4] = target: T4, FZD3 CRD (Homo sapiens, UniProt Q9NPG1); test: Immunofluorescence of anti-FZD5 Fab binding to CHO cells overexpressing Frizzled CRD; parameters: key: −: no binding; +: very weak binder; ++: weak binder; +++: good binder; ++++: very good binder
T4 construct: CRD of FZD1, FZD2, FZD3, FZD4, FZD5, FZD6, FZD7, FZD8, FZD9 or FZD10; GPI anchor signal (C); expressed in transfected cells; host or cells: CHO cells, lentiviral pLenti-puro
T4 sequence (Q9NPG1 23-136 limits assumed): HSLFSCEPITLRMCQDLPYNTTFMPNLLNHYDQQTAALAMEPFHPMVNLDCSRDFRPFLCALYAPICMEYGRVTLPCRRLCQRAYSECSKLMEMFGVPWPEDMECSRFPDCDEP
Procedure: as §1, §3, §4

[5] = target: T3, FZD7 CRD; test: as above; parameters: key: −: no binding; +: very weak binder; ++: weak binder; +++: good binder; ++++: very good binder
Procedure: as §1, §3, §4

[6] = tested on: ASPC-1 cells; test: Effect of anti-FZD5 Fabs on proliferation of pancreatic cancer cell lines (percent growth inhibition); assay type: cell-based, human; details: Fab 10 μg/ml
Procedure: (§5) The effect of presently disclosed anti-FZD5 Fabs on proliferation of RNF43 loss-of-function mutant pancreatic cancer cell lines HPAFII, PATU8988S and ASPC-1; and on pancreatic cancer cell line RWP1, was tested at […] and 10 μg/ml.

[7] = tested on: HPAFII cells; test: as above; assay type: cell-based, human
Procedure: as §5

[8] = tested on: PATU8988S cells; test: as above; assay type: cell-based, human; details: Fab 10 μg/ml
Procedure: as §5

[9] = tested on: RWP1 cells; test: as above; assay type: cell-based, human; details: Fab 10 μg/ml
Procedure: as §5

Substance: Fab-2931: anti-FZD5 Fab with antibody variable region Fv-2931; CDR SEQ ID NOs: 35, 36, 70, 102, 146, 176 (CDR 1 QSVSSA; CDR 2 SAS; CDR 3 QQSSYSLIT; CDR 4 GFNLSYSS; CDR 5 ISPYSGST; CDR 6 ARGSYWYVGGGWWVSGHGGMDY)
- Median fluorescence, Frizzled CRD overexpressed on CHO cells: FZD10 [1]: 2.59
- Median fluorescence, Frizzled CRD overexpressed on CHO cells: FZD5 [2]: 28.13
- Median fluorescence, Frizzled CRD overexpressed on CHO cells: FZD7 [3]: 9.14
- Immunofluorescence binding, Frizzled CRD overexpressed on CHO cells: FZD3 [4]: −
- Immunofluorescence binding, Frizzled CRD overexpressed on CHO cells: FZD7 [5]: +
- percent growth inhibition, ASPC-1 10 μg/ml [6]: 39.20%
- percent growth inhibition, HPAFII 2 μg/ml ([7]; Fab 2 μg/ml): −19.38%
- percent growth inhibition, HPAFII 10 μg/ml ([7]; Fab 10 μg/ml): 11.37%
- percent growth inhibition, PATU8988s 10 μg/ml [8]: −17.27%
- percent growth inhibition, RWP1 10 μg/ml [9]: 18.70%
